Experimental findings from publication PMC7308368, “Structure of the polymerase ε holoenzyme and atomic model of the leading strand replisome” (Nature Communications, 2020) are described below.

B3: Dpb3 subunit of S. cerevisiae DNA polymerase ε holoenzyme (natural protein)
chain: MSNLVKEKAPVFPISKVKKIAKCDPEYVITSNVAISATAFAAELFVQNLVEESLVLAQLNSKGKTSLRLSLNSIEECVEKRDNFRFLEDAIKQLKKNSALDKKRELNMQPGRSDQEVVIEEPELHEDDGVEEEEEEDEVSEEEEPVHNEELLDDSKDQQNDKSTRSVASLLSRFQYKSALDVGEHSDSSDIEVDHTKSTDP
notes: DNA polymerase epsilon subunit C Dpb3, S. cerevisiae; histone fold domain and C-terminal region; The holoenzyme was purified on anti-Flag resin; source: yeast, subunit genes integrated under the Gal1/10 promotor, galactose-induced; purified as holoenzyme (anti-Flag resin, MonoS)

In experiment [1] the target is T1, Pol2 subunit of S. cerevisiae DNA polymerase ε holoenzyme (S. cerevisiae, UniProt P21951 1-2222).
T1 construct: DNA polymerase epsilon catalytic subunit Pol2, S. cerevisiae; 2222-residue polypeptide with catalytic NTD, NTD-CTD linker (Thr-1186 to Ser-1308) and non-catalytic CTD; The holoenzyme was purified on anti-Flag resin; source: yeast, subunit genes integrated under the Gal1/10 promotor, galactose-induced; purified as holoenzyme (anti-Flag resin, MonoS)
T1 sequence (P21951 whole entry): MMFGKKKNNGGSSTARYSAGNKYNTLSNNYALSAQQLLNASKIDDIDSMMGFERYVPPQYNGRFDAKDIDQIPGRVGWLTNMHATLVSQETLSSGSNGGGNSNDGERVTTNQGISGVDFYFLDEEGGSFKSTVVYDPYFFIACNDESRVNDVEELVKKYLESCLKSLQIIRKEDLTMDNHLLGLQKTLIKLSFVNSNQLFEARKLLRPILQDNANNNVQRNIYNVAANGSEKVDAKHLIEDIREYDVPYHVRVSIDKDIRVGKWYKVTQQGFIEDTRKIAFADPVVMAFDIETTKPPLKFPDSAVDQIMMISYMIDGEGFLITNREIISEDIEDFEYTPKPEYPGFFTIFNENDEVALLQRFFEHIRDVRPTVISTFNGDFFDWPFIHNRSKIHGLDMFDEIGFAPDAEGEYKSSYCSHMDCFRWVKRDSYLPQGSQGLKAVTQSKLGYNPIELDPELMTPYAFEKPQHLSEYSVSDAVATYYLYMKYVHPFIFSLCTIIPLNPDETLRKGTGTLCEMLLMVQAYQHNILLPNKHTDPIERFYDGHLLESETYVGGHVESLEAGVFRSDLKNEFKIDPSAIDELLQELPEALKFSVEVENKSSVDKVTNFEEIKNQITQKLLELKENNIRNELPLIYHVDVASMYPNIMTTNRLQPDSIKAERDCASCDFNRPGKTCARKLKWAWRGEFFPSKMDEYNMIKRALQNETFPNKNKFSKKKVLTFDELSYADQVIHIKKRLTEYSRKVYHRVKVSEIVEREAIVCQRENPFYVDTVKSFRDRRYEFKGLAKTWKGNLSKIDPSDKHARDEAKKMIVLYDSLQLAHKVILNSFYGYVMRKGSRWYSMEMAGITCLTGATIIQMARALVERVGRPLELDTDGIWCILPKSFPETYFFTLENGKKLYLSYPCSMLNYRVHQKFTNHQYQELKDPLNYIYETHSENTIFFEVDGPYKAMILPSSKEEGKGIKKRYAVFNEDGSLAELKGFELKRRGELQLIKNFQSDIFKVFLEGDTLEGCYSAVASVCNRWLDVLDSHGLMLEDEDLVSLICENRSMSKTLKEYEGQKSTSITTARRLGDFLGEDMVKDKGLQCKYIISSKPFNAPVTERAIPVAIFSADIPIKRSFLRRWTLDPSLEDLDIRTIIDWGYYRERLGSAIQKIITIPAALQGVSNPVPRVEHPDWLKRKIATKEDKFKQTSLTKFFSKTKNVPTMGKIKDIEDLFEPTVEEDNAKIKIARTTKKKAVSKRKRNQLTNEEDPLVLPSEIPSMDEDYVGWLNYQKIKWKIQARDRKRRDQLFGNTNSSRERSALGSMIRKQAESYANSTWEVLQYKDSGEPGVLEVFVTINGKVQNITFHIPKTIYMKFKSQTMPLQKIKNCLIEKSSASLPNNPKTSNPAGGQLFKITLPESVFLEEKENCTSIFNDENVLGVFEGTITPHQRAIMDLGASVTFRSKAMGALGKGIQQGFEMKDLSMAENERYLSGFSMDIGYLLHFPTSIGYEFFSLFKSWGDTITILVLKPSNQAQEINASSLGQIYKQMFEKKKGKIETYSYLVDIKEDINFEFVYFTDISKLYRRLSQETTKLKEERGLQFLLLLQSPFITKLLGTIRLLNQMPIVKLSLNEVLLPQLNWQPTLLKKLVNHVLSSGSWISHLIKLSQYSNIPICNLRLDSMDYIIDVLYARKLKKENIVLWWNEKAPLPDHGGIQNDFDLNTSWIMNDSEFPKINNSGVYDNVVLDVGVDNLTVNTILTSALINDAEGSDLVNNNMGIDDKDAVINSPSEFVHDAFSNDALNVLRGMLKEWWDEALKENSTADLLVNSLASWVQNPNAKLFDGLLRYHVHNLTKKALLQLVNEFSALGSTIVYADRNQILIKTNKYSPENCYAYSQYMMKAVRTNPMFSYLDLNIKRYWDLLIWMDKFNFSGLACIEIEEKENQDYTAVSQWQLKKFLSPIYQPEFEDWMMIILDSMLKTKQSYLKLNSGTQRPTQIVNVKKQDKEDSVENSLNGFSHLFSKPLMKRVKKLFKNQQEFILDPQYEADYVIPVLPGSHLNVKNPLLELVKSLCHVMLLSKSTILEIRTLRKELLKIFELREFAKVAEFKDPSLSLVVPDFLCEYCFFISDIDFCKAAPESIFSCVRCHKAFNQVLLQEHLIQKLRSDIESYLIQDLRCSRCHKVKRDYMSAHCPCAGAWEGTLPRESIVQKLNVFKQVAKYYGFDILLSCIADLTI
Kind of experiment: cryo-EM structure; recombinant Pol ε holoenzyme at ~1.6 mg/ml on C-flat holey carbon grids; rigid-state particles selected; 3.5 Å map; sample buffer 50 mM Hepes pH 7.5, 50 mM KGlu, 200 mM KAcetate, 1 mM DTT, 4 mM MgCl2. The conditions noted are these: both partners purified.

Experiment [2] has as its target B3. The description is as above. As to conditions: both partners purified.

B1: Dpb2 subunit of S. cerevisiae DNA polymerase ε holoenzyme (natural protein)
chain: MFGSGNVLPVKIQPPLLRPLAYRVLSRKYGLSIKSDGLSALAEFVGTNIGANWRQGPATIKFLEQFAAVWKQQERGLFIDQSGVKEVIQEMKEREKVEWSHEHPIQHEENILGRTDDDENNSDDEMPIAADSSLQNVSLSSPMRQPTERDEYKQPFKPESSKALDWRDYFKVINASQQQRFSYNPHKMQFIFVPNKKQNGLGGIAGFLPDIEDKVQMFLTRYYLTNDRVMRNENFQNSDMFNPLSSMVSLQNELSNTNRQQQSSSMSITPIKNLLGRDAQNFLLLGLLNKNFKGNWSLEDPSGSVEIDISQTIPTQGHYYVPGCMVLVEGIYYSVGNKFHVTSMTLPPGERREITLETIGNLDLLGIHGISNNNFIARLDKDLKIRLHLLEKELTDHKFVILGANLFLDDLKIMTALSKILQKLNDDPPTLLIWQGSFTSVPVFASMSSRNISSSTQFKNNFDALATLLSRFDNLTENTTMIFIPGPNDLWGSMVSLGASGTLPQDPIPSAFTKKINKVCKNVVWSSNPTRIAYLSQEIVIFRDDLSGRFKRHRLEFPFNESEDVYTENDNMMSKDTDIVPIDELVKEPDQLPQKVQETRKLVKTILDQGHLSPFLDSLRPISWDLDHTLTLCPIPSTMVLCDTTSAQFDLTYNGCKVINPGSFIHNRRARYMEYVPSSKKTIQEEIYI
notes: DNA polymerase epsilon subunit B Dpb2, S. cerevisiae; N-terminal helical domain (8-94, disordered), PDE domain (168-209 and 349-689), OB domain (210-348); The holoenzyme was purified on anti-Flag resin; also called Dbp2; B subunit; source: yeast, subunit genes integrated under the Gal1/10 promotor, galactose-induced; purified as holoenzyme (anti-Flag resin, MonoS)
Take B1: the binding result in experiment [1] is reported as “binds”.

B2: Dpb4 subunit of S. cerevisiae DNA polymerase ε holoenzyme (natural protein)
chain: MPPKGWRKDAQGNYPTTSYIKEQENITIQDLLFPKSTIVNLAREVPQQSGKKLLINKDASLALQRGATVFVNHLLLFAREIAKSQDKKSCSVDDVLSALDHIGHSALKGPVRDKLDEYQAAVEQRKKEKLDSGEVDADGDIDMGEDKENVPVEKVKEHDEIEEQGDALQDVEESSEKKQKTESQDVETRVQNLEQT
notes: DNA polymerase epsilon subunit D Dpb4, S. cerevisiae; histone fold domain and C-terminal region; The holoenzyme was purified on anti-Flag resin; also called Dbp4; source: yeast, subunit genes integrated under the Gal1/10 promotor, galactose-induced; purified as holoenzyme (anti-Flag resin, MonoS)
With B2, the binding result in experiment [1] and in experiment [2] was “binds” each time. Take B3: the binding result in experiment [1] is listed as “binds”.
